Experimental data as given in patent publication US20250326865A1, “C-MET PROTEIN-BINDING PEPTIDE COMPLEX” (PeptiDream Inc., priority 2021, published 2025).
Starred links: 1 amine or outer side, 2 acyl side, 3 side chain; linkers in the order of their positions; H or OH if unused. Positions of bridges follow the written chain, without caps; N, C: chain ends. Non-standard residues stand in square brackets, D forms with d. Residues, ends and D or L forms follow the SMILES beside them. Primed or numbered codes have the meaning given here. Chains are numbered I, II in the order given. No end group written: not given here. CO(CH2)2(OCH2CH2)17CO = O=C(CCOCCOCCOCCOCCOCCOCCOCCOCCOCCOCCOCCOCCOCCOCCOCCOCCOCCC(=O)[*:2])[*:1]; CO(CH2CH2O)9CH2CH2CO = O=C(CCOCCOCCOCCOCCOCCOCCOCCOCCOCCC(=O)[*:2])[*:1]; X1 = O=C(OCCOCCOCCOCCOCCOCCOCCOCCOCCOCCOCCOCCOC(=O)[*:2])[*:1]; PEG12 = NCCOCCOCCOCCOCCOCCOCCOCCOCCOCCOCCOCCOCCC(=O)O; NMeF = CN[C@@H](Cc1ccccc1)C(=O)O; Ahp(2) = CCCCC[C@H](N)C(=O)O; NMeC = CN[C@@H](CS)C(=O)O; Nle = CCCC[C@H](N)C(=O)O; Ahp′ = not defined here; Abu = CC[C@H](N)C(=O)O

Columns and labels:
c-Met = molecular target: T1, c-Met (Homo sapiens, UniProt P08581); test: Phospho-c-Met AlphaLISA assay (c-Met agonist activity) in A431 cells; type: cell-based; conditions: 15 minutes of stimulation; for C-Met Agonist Activity (2 or 1): c-Met phosphorylation (Tyr1234/1235) in A431 cells, maximum signal induced by HGF = 100%; for EC50: concentration of peptide showing 50% activity of the signal induced by HGF, A431 cells, read-out: C-Met Agonist Activity (C50; nM)
T1 construct: endogenous in cells; host or cells: A431 (human)
T1 sequence (P08581 25-1390): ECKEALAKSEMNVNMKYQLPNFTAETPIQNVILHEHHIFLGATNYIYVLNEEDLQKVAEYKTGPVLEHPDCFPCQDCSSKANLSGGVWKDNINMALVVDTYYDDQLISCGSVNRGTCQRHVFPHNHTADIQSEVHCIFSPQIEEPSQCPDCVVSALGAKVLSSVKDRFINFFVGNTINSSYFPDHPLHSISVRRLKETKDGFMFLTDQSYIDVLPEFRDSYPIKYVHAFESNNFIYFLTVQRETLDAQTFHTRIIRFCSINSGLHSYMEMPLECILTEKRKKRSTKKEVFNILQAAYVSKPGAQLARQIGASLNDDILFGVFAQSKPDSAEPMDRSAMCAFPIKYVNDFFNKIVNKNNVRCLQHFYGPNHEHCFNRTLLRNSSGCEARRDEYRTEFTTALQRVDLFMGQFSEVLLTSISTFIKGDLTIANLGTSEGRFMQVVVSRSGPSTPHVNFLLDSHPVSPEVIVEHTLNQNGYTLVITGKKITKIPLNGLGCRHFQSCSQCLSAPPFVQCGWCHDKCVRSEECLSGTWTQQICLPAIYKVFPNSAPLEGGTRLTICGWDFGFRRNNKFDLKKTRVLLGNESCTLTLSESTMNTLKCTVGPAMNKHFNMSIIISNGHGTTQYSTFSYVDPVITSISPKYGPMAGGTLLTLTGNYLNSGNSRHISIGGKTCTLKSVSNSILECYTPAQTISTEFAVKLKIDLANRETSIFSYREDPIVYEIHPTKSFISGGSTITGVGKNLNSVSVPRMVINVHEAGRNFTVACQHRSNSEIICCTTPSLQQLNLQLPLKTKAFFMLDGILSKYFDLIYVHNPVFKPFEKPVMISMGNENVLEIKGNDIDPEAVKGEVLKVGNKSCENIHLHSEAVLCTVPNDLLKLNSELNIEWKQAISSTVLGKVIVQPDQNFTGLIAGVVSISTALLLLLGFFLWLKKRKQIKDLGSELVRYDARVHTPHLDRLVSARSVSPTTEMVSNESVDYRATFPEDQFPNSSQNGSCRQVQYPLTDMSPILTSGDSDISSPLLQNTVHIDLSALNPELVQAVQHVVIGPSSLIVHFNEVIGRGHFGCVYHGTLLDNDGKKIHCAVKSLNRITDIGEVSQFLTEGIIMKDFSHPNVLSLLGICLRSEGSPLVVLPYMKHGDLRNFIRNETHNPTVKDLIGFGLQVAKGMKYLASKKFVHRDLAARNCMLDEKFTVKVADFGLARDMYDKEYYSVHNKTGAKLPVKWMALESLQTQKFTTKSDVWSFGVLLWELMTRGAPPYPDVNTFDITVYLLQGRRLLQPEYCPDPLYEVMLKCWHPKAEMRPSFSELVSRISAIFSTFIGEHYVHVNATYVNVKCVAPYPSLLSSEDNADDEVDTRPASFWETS
Description: To evaluate the activation potency (c-Met agonist activity) of c-Met of the peptide complex of the present invention, the phosphorylation of c-Met was verified. Human A431 cells were cultured in DMEM high glucose, GlutaMAX (registered trademark) Supplement, pyruvate (Thermo Fisher Scientific), containing 10% FBS (Gibco). After cells were detached using Accutase (Innovative cell technologies), they were seeded into a 96-well plate at 10000 cells per well and cultured overnight. The next day, for starvation, the culture medium was changed to DMEM high glucose, GlutaMAX (registered trademark) Supplement, pyruvate (Thermo Fisher Scientific), containing 0.1% BSA (Sigma-Aldrich), and the cells were cultured overnight. Then, the peptide complex synthesized in Example 3 or Recombinant Human HGF Protein (R&D systems) as a control was added, and after 15 minutes of stimulation, cells were lysed in a Lysis Buffer provided in the AlphaLISA (registered trademark) SureFire (registered trademark) Ultra™ Phospho-c-Met (Tyr1234/1235) kit (PerkinElmer). The assay was performed according to the kit protocol, and a SpectraMax (registered trademark) Paradigm (registered trademark) multimode microplate reader (Molecular Devices, LLC.) was used for signal detection. […] In the same manner, the C50 value was calculated by GraphPad Prism as the concentration of peptide showing 50% activity of the signal induced by HGF. […] Further, for a complex (GFs_c-Met-00014336-PEG13 dimer; complex no. 49 in Table 4) of a peptide (SEQ ID NO: 34) and a linker (SEQ ID NO: 37), a graph of c-Met agonist activity is shown in FIG. 1.

human c-Met protein = human c-Met protein (human, UniProt P08581 25-1390); test: cell-based or functional assay
Chain of human c-Met protein (P08581 25-1390): as above

10 ({CH2CO}-[NMeF]VYVS[NMeF]DDD[Ahp′]PSWS[NMeC]; thioether N-15 (inferred); not fully specified; reading uncertain; also: conjugated moiety via linker) [Peptide 10]
C-Met Agonist Activity (2 or 1) (c-Met): 1 (those showing less than 50% activation as 1)

9 ([NMeF]VYVS[NMeF]DDDSPRWS[NMeC]; also: conjugated moiety via linker, site not given here) [Peptide 9]
C-Met Agonist Activity (2 or 1) (c-Met): 2 (those showing more than 50% activation were described as 2)

13 ({CH2CO}-[NMeF]VYVS[NMeF]DDD[Ahp′]PRWH[NMeC]; thioether N-15 (inferred); not fully specified; reading uncertain; also: conjugated moiety via linker) [Peptide 13]
C-Met Agonist Activity (2 or 1) (c-Met): 2 (those showing more than 50% activation were described as 2)

16 ({CH2CO}-[NMeF]VAVS[NMeF]DDD[Ahp′]PRWS[NMeC]; thioether N-15 (inferred); not fully specified; reading uncertain; also: conjugated moiety via linker) [Peptide 16]
C-Met Agonist Activity (2 or 1) (c-Met): 1 (those showing less than 50% activation as 1)

CCCCC[C@@H]1NC(=O)[C@H](CC(=O)O)NC(=O)[C@@H]2CCCN2C(=O)[C@H](CC(=O)O)NC(=O)[C@H](Cc2ccccc2)N(C)C(=O)[C@H](CO)NC(=O)[C@H](C(C)C)NC(=O)[C@H](C)NC(=O)[C@H](CCC(=O)O)NC(=O)[C@H](Cc2ccccc2)N(C)C(=O)CSC[C@@H](C(=O)NCC(=O)N[C@@H](CCCCNC(=O)CCOCCOCCOCCOCCOCCOCCOCCOCCOCCOCCOCCOCCOCCOCCOCCOCCOCCC(=O)NCCCC[C@H](NC(=O)CNC(=O)[C@@H]2CSCC(=O)N(C)[C@@H](Cc3ccccc3)C(=O)N[C@@H](CCC(=O)O)C(=O)N[C@@H](C)C(=O)N[C@@H](C(C)C)C(=O)N[C@@H](CO)C(=O)N(C)[C@@H](Cc3ccccc3)C(=O)N[C@@H](CC(=O)O)C(=O)N3CCC[C@H]3C(=O)N[C@@H](CC(=O)O)C(=O)N[C@@H](CCCCC)C(=O)N3CCC[C@H]3C(=O)N[C@@H](CCCNC(=N)N)C(=O)N[C@@H](Cc3c[nH]c4ccccc34)C(=O)N[C@@H](C)C(=O)N2C)C(N)=O)C(N)=O)N(C)C(=O)[C@H](C)NC(=O)[C@H](Cc2c[nH]c3ccccc23)NC(=O)[C@H](CCCNC(=N)N)NC(=O)[C@@H]2CCCN2C1=O [Peptide 27] (I: {CH2CO}-[NMeF]EAVS[NMeF]DPD[Ahp(2)]PRWA[NMeC]GK-NH2 / II: {CH2CO}-[NMeF]EAVS[NMeF]DPD[Ahp(2)]PRWA[NMeC]GK-NH2; linker I:17-II:17 via CO(CH2)2(OCH2CH2)17CO (inferred); thioether I:N-I:15, II:N-II:15 (inferred); C-terminus assumed)
EC50 (c-Met): 2.37 nM

14 ({CH2CO}-[NMeF]VYVS[NMeF]DDD[Ahp′]PRWQ[NMeC]; thioether N-15 (inferred); not fully specified; reading uncertain; also: conjugated moiety via linker) [Peptide 14]
C-Met Agonist Activity (2 or 1) (c-Met): 2 (those showing more than 50% activation were described as 2)

15 ({CH2CO}-[NMeF]VYVS[NMeF]DDD[Ahp′]PRWV[NMeC]; thioether N-15 (inferred); not fully specified; reading uncertain; also: conjugated moiety via linker) [Peptide 15]
C-Met Agonist Activity (2 or 1) (c-Met): 2 (those showing more than 50% activation were described as 2)

7 ({CH2CO}-[NMeF]VYVS[NMeF]DVD[Ahp′]PRWS[NMeC]; thioether N-15 (inferred); not fully specified; reading uncertain; also: conjugated moiety via linker) [Peptide 7]
C-Met Agonist Activity (2 or 1) (c-Met): 2 (those showing more than 50% activation were described as 2)

4 (AVYVS[NMeF]DDD[Ahp′]PRWS[NMeC]; not fully specified (N-terminus, bridges); reading uncertain; also: conjugated moiety via linker) [Peptide 4]
C-Met Agonist Activity (2 or 1) (c-Met): 1 (those showing less than 50% activation as 1)

CCCCC[C@@H]1NC(=O)[C@H](CC(=O)O)NC(=O)[C@H](CC(=O)O)NC(=O)[C@H](CC(=O)O)NC(=O)[C@H](Cc2ccccc2)N(C)C(=O)[C@H](CO)NC(=O)[C@H](C(C)C)NC(=O)[C@H](Cc2ccc(O)cc2)NC(=O)[C@H](C(C)C)NC(=O)[C@H](Cc2ccccc2)N(C)C(=O)CSC[C@@H](C(=O)NCCOCCOCCOCCOCCOCCOCCOCCOCCOCCOCCOCCOCCC(=O)NCCCC[C@H](NC(=O)CCOCCOCCOCCOCCOCCOCCOCCOCCOCCOCCOCCOCCNC(=O)[C@@H]2CSCC(=O)N(C)[C@@H](Cc3ccccc3)C(=O)N[C@@H](C(C)C)C(=O)N[C@@H](Cc3ccc(O)cc3)C(=O)N[C@@H](C(C)C)C(=O)N[C@@H](CO)C(=O)N(C)[C@@H](Cc3ccccc3)C(=O)N[C@@H](CC(=O)O)C(=O)N[C@@H](CC(=O)O)C(=O)N[C@@H](CC(=O)O)C(=O)N[C@@H](CCCCC)C(=O)N3CCC[C@H]3C(=O)N[C@@H](CCCNC(=N)N)C(=O)N[C@@H](Cc3c[nH]c4ccccc34)C(=O)N[C@@H](C)C(=O)N2C)C(N)=O)N(C)C(=O)[C@H](C)NC(=O)[C@H](Cc2c[nH]c3ccccc23)NC(=O)[C@H](CCCNC(=N)N)NC(=O)[C@@H]2CCCN2C1=O [Peptide 22] (I: {CH2CO}-[NMeF]VYVS[NMeF]DDD[Ahp(2)]PRWA[NMeC][PEG12]K-NH2 / II: {CH2CO}-[NMeF]VYVS[NMeF]DDD[Ahp(2)]PRWA[NMeC][PEG12]; amide I:17-II:C; thioether I:N-I:15, II:N-II:15)
EC50 (c-Met): 2.37 nM

CCCCC[C@@H]1NC(=O)[C@H](CC(=O)O)NC(=O)[C@H](CCC(=O)O)NC(=O)[C@H](CC(=O)O)NC(=O)[C@H](Cc2ccccc2)N(C)C(=O)[C@H](CO)NC(=O)[C@H](C(C)C)NC(=O)[C@H](C)NC(=O)[C@H]([C@@H](C)O)NC(=O)[C@H](Cc2ccccc2)N(C)C(=O)CSC[C@@H](C(=O)NCC(=O)N[C@@H](CCCCNC(=O)OCCOCCOCCOCCOCCOCCOCCOCCOCCOCCOCCOCCOC(=O)NCCCC[C@H](NC(=O)CNC(=O)[C@@H]2CSCC(=O)N(C)[C@@H](Cc3ccccc3)C(=O)N[C@@H]([C@@H](C)O)C(=O)N[C@@H](C)C(=O)N[C@@H](C(C)C)C(=O)N[C@@H](CO)C(=O)N(C)[C@@H](Cc3ccccc3)C(=O)N[C@@H](CC(=O)O)C(=O)N[C@@H](CCC(=O)O)C(=O)N[C@@H](CC(=O)O)C(=O)N[C@@H](CCCCC)C(=O)N3CCC[C@H]3C(=O)N[C@@H](CCCNC(=N)N)C(=O)N[C@@H](Cc3c[nH]c4ccccc34)C(=O)N[C@@H](CO)C(=O)N2C)C(N)=O)C(N)=O)N(C)C(=O)[C@H](CO)NC(=O)[C@H](Cc2c[nH]c3ccccc23)NC(=O)[C@H](CCCNC(=N)N)NC(=O)[C@@H]2CCCN2C1=O [Peptide 49] (I: {CH2CO}-[NMeF]TAVS[NMeF]DED[Ahp(2)]PRWS[NMeC]GK-NH2 / II: {CH2CO}-[NMeF]TAVS[NMeF]DED[Ahp(2)]PRWS[NMeC]GK-NH2; linker I:17-II:17 via X1 (inferred); thioether I:N-I:15, II:N-II:15 (inferred); C-terminus assumed)
EC50 (c-Met): 0.67 nM

2 ({CH2CO}-[MeA]VYVS[NMeF]DDD[Ahp′]PRWS[NMeC]; thioether N-15 (inferred); not fully specified; reading uncertain; also: conjugated moiety via linker) [Peptide 2]
C-Met Agonist Activity (2 or 1) (c-Met): 1 (those showing less than 50% activation as 1)

8 ({CH2CO}-[NMeF]VYVS[NMeF]DDD[Nle]PRWS[NMeC]; thioether N-15 (inferred); not fully specified; also: conjugated moiety via linker) [Peptide 8]
C-Met Agonist Activity (2 or 1) (c-Met): 2 (those showing more than 50% activation were described as 2)

11 ({CH2CO}-[NMeF]VYVS[NMeF]DDD[Ahp′]PRW[Abu][NMeC]; thioether N-15 (inferred); not fully specified; reading uncertain; also: conjugated moiety via linker) [Peptide 11]
C-Met Agonist Activity (2 or 1) (c-Met): 2 (those showing more than 50% activation were described as 2)

B1: GFs_c-Met-00014318-PEG9 dimer (peptide SEQ ID NO: 34, GFs_c-Met-00014336p; linker SEQ ID NO: 36) (peptide)
peptide: {CH2CO}-[NMeF]TAVS[NMeF]DED[Ahp(2)]PRWS[NMeC]
chain: GK[CO(CH2CH2O)9CH2CH2CO]KG
modifications: thioether I:N-I:15 (inferred); also: homodimer: two cyclic peptides joined by linker G-K-cPEG9c-K-G, peptide C-terminus on linker
C-Met Agonist Activity (C50; nM): phospho-c-Met AlphaLISA, A431 cells (human c-Met protein): 0.24 nM

B2: GFs_c-Met-00014305-PEG17 dimer (peptide SEQ ID NO: 34, GFs_c-Met-00014336p; linker SEQ ID NO: 38) (peptide)
peptide: {CH2CO}-[NMeF]TAVS[NMeF]DED[Ahp(2)]PRWS[NMeC]
chain: GK[CO(CH2)2(OCH2CH2)17CO]KG
modifications: thioether I:N-I:15 (inferred); also: homodimer: two cyclic peptides joined by linker G-K-cPEG17c-K-G, peptide C-terminus on linker
C-Met Agonist Activity (C50; nM): phospho-c-Met AlphaLISA, A431 cells (human c-Met protein): 0.27 nM
